PMC6151396, “Production of Single-Chain Fv Antibodies Specific for GA-Pyridine, an Advanced Glycation End-Product (AGE), with Reduced Inter-Domain Motion” (Molecules : A Journal of Synthetic Chemistry and Natural …, 2017)
Positions count from the first letter of the chain named. Names and notes keep the numbering of the source.

B1: AGE73scFv displayed on phage (scFv, V domains shown)
VH: QVKLQQSGPSLVKPSQTLSLTCSVTGDSITSGYWNWIRKFPGNKFEYLGYISYSGRTYYNPSLKSRISITRDTSKNQYYLQLNSVTTEDTATYYCSRPYYRYDYAIDYWGQGTTVTVSS
VL: DIELTQSPAIMSASLGERVTMTCTASSSVSSSYLHWYQQKPGSSPKLWIYSTSNLASGVPARFSSSGSGTSYSLTISRMEAEDAATYYCQQSRKVPYTFGGGTKLEIK
notes: VH of AGE73scFv; as the VH of m1; (Gly-Gly-Gly-Gly-Ser)3 linker; VL of AGE73scFv; as the VL of m1
B2: AGE73scFv (scFv, V domains shown)
VH: B1 VH
VL: B1 VL
notes: VH of AGE73scFv, from the GA-KLH immunised mouse antibody library; (Gly-Gly-Gly-Gly-Ser)3 linker; VL of AGE73scFv, from the GA-KLH immunised mouse antibody library; the FLAG-tag lies on the N-terminal side of the hexahistidine-tag, so both are probably C-terminal of the scFv; also called anti-GA-pyridine scFv
B3: AGE112scFv displayed on phage (scFv, V domains shown)
VH: B1 VH with Q6E
VL: DIELTQSPTTMAASPGEKITITCSASSSISSNYLHWYQQKPGFSPKLLIYSTSNLASGVPARFSGSGSGTSYSLTISSMEAEDAATYYCQQWSSNPYTFGGGTKLEIK
notes: VH of AGE112scFv; (Gly-Gly-Gly-Gly-Ser)3 linker; VL of AGE112scFv
B4: AGE78scFv displayed on phage (scFv, V domains shown)
VH: B1 VH with Q6E, Q81H, S96T, Y100H, Y108F
VL: DIELTQSPAIMSASPGEKVTMTCSASSSVSYMHWYQQKPGFSPKLLIYRTSNLASGVPARFSGSGSGTSYSLTIGTMEAEDVATYYCQQGSSIPYTFGGGTKLEIK
notes: VH of AGE78scFv; (Gly-Gly-Gly-Gly-Ser)3 linker; VL of AGE78scFv
B5: 73MuL-V94A displayed on phage (scFv, V domains shown)
VH: B1 VH
VL: B1 VL with V95A
notes: as the VH of m1 (AGE73scFv); (Gly-Gly-Gly-Gly-Ser)3 linker; as the VL of m1 (AGE73scFv) with V94A; probably Kabat; source: second library, error-prone PCR of the VL of AGE73scFv
B6: 73MuL-S56P displayed on phage (scFv, V domains shown)
VH: B1 VH
VL: B1 VL with S57P
notes: as the VH of m1 (AGE73scFv); (Gly-Gly-Gly-Gly-Ser)3 linker; as the VL of m1 (AGE73scFv); probably Kabat; source: second library, error-prone PCR of the VL of AGE73scFv
B7: 73MuL-S30P displayed on phage (scFv, V domains shown)
VH: B1 VH
VL: B1 VL with S31P
notes: as the VH of m1 (AGE73scFv); (Gly-Gly-Gly-Gly-Ser)3 linker; as the VL of m1 (AGE73scFv); source: second library, error-prone PCR of the VL of AGE73scFv

What was measured:
[1] = molecular target: T1, glycolaldehyde (GA)-modified bovine serum albumin (Bos taurus, UniProt P02769, modified by glycolaldehyde (GA-pyridine forms on the ε-amino group of Lys residues); sites not given); experiment: ELISA; phage ELISA: GA-BSA coated on a 96-well plate, scFv display phage clones added for 1 h at 25 °C, detected with HRP-conjugated anti-M13 antibody; details: one partner purified
T1 construct: bovine serum albumin; The scFvs are directed against GA-pyridine, a modified lysine; also called GA-BSA; source: BSA (25 mg/mL) incubated with 50 mM glycolaldehyde at 37 °C for 12 h, dialysed with PBS

[2] = molecular target: T2, glyceraldehyde-modified BSA (Bos taurus, UniProt P02769, modified by glyceraldehyde; sites not given); experiment: ELISA; competitive ELISA of purified AGE73scFv with AGE-modified BSAs as competitors; coated antigen and conditions not told in the text shown (Figure S2); details: both partners purified
T2 construct: bovine serum albumin; also called GCA-BSA

[3] = molecular target: T3, glucose-derived AGE-modified BSA (Bos taurus, UniProt P02769, glucose-derived AGE modification; sites not given); experiment: as above; details: both partners purified
T3 construct: bovine serum albumin; also called Glc-BSA

[4] = molecular target: T1, glycolaldehyde (GA)-modified bovine …; experiment: as above; details: both partners purified

T1 sequence (P02769 25-607): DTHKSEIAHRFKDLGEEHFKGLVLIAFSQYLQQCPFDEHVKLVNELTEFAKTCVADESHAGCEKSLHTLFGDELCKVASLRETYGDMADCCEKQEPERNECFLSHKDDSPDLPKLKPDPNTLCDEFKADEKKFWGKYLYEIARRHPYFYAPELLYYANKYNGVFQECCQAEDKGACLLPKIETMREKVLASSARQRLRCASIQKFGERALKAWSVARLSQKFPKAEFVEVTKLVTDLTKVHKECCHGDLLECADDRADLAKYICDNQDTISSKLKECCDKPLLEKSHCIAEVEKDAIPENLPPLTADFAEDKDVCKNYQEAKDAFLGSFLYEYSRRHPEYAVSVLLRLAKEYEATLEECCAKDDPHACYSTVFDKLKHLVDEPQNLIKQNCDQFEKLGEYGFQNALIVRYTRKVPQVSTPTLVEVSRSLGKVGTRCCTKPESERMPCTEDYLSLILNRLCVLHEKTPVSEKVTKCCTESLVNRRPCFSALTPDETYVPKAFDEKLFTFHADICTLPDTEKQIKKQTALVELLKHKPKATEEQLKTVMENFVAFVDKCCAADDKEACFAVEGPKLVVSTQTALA
T3 sequence (P02769 25-607): as above
T2 sequence (P02769 25-607): as above

Row | Binder | binding result [1] | also measured
1 | B1 | binds | –
2 | B2 | – | binding result [2]: binds; binding result [3]: binds; binding result [4]: binds
3 | B3 | binds | –
4 | B4 | binds | –
5 | B5 | binds | –
6 | B6 | binds | –
7 | B7 | binds | –
